Laboratory results reported in patent US20170355757A1 (Regeneron, published 2017).
Where a chain is given by its changes, count along the chain named. Names may count otherwise.

T1: monkey C5-mmh (monkey, UniProt P01031 19-1676 (human entry), limits assumed)
T1 construct: Recombinant monkey C5 with a C-terminal myc-myc-hexahistidine tag
T1 chain: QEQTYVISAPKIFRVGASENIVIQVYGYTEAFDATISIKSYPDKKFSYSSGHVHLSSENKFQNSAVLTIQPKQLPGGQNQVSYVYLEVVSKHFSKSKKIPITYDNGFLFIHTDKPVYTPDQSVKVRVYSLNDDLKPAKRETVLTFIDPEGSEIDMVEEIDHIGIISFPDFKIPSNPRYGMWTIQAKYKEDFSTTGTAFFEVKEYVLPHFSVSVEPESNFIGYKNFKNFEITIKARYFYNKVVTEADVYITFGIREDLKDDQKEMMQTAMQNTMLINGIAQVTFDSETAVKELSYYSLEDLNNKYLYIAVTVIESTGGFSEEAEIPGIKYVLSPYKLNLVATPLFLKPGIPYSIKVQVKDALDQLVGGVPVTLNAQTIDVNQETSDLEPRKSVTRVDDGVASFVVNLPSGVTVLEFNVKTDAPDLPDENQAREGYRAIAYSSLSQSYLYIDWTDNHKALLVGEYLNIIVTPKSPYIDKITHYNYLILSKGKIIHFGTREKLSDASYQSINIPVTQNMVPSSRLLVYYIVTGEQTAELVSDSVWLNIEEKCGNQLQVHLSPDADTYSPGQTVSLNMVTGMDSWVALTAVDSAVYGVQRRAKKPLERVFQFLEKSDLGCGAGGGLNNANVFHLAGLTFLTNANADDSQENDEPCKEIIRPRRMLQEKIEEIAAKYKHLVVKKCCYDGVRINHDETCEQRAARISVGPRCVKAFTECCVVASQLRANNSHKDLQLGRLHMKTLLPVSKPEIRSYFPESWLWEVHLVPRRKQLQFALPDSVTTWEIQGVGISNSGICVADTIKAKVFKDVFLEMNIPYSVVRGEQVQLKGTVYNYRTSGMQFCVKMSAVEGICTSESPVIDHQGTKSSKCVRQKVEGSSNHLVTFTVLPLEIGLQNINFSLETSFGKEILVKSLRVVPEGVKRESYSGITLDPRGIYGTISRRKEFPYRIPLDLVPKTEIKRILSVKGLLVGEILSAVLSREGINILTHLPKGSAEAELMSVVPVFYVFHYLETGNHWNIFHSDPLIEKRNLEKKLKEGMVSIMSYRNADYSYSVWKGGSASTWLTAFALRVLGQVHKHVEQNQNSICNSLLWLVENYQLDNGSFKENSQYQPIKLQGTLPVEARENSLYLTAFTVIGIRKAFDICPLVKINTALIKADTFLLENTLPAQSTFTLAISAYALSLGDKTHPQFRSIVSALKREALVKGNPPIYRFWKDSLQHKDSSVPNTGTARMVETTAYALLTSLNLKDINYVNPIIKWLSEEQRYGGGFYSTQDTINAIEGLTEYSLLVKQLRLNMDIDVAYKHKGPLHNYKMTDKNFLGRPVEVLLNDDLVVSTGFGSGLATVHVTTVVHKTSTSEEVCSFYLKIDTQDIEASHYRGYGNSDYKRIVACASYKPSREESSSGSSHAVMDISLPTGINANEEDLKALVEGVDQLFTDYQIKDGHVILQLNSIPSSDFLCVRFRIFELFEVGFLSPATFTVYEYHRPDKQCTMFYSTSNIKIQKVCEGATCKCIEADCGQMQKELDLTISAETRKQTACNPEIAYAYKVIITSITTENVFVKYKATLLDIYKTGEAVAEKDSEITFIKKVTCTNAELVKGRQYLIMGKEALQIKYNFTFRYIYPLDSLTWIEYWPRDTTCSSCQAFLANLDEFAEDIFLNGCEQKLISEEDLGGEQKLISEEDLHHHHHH

B1: H4H11683N (antibody, V domains shown)
VH: QVQLVESGGGVVQPGRSLRLSCVASGFTFSSYGIHWVRQAPGKGLEWVAVIWDDGNNINYSDSVKGRFIISRDNSRKTVYLQMNSLRGEDTAVYYCARDAPIAPVPDYWGQGTLVTVSS
VL: DIQMTQSPSTLSASVGDRVTITCRASQSISSWLAWYQQKPGKAPKLLIYKASSLDTGVPSRFSGSGSGTEFTLTISSLQPDDFATYYCQQYNTYSYTFGLGTKLEIK
notes: also called H2M11683N
B2: H4H12166P2 (antibody, human IgG4, V domains shown)
VH: QVQLQESGPGLVKPSETLSLTCTVSGDSVSSSYWTWIRQPPGKGLEWIGYIYYSGSSNYNPSLKSRATISVDTSKNQFSLKLSSVTAADTAVYYCAREGNVDTTMIFDYWGQGTLVTVSS
VL: AIQMTQSPSSLSASVGDRVTITCRASQGIRNDLGWYQQKPGKAPKLLIYAASSLQSGVPSRFAGRGSGTDFTLTISSLQPEDFATYYCHQDFNYPWTFGQGTKVEIK
notes: Histidine-mutated CDR variant of H4H12166P; human IgG4 Fc with S108P
B3: H4H12166P5 (antibody, human IgG4, V domains shown)
VH: B2 VH with F107H
VL: B2 VL with H89L
notes: as for B2
B4: H4H12166P9 (antibody, human IgG4, V domains shown)
VH: B2 VH with T103H
VL: B2 VL with H89L, T97H
notes: as for B2
B5: H4H12166P8 (antibody, human IgG4, V domains shown)
VH: B2 VH with T103H
VL: B2 VL
notes: as for B2
B6: H4H12166P7 (antibody, human IgG4, V domains shown)
VH: B2 VH with G99H
VL: B2 VL with H89L, T97H
notes: as for B2
B7: H4H12166P10 (antibody, human IgG4, V domains shown)
VH: B2 VH with F107H
VL: B2 VL with H89L, T97H
notes: as for B2
B8: H4H12166P6 (antibody, human IgG4, V domains shown)
VH: B2 VH with T103H
VL: B2 VL with H89L
notes: as for B2
B9: H4H12166P4 (antibody, human IgG4, V domains shown)
VH: B2 VH
VL: B2 VL with H89L, T97H
notes: as for B2
B10: H4H12171P (antibody, human IgG4, V domains shown)
VH: EVQLVESGGGVVRPGGSLRLSCAASGFTFDEYGMTWVRQVPGKGLEWVSGITWNGGFTDYTDSVKGRFTSSRDNAKNSLYLQMNSLRAEDTALYYCARDGYSSSWGAYDIWGQGTMVTVSS
VL: DIQMTQSPSSLSASVGDRVTITCRASQSISTYLNWYQQKPGKAPKLLIYAASSLQSGVPLRFSGSGSGTDFTLTISSLQPEDFASYFCQQSYSTPYTFGQGTKLEIK
notes: Human IgG4 Fc with S108P hinge mutation (H4H)

biological target: T2, human C5 (human, UniProt P01031 19-1676); assay: SPR, mAb captured via anti-hFc, dissociation at pH7.4 vs pH6.0, 25C
T2 construct: Bought human C5 (EMD #204888, said elsewhere to be purified from plasma); also called hC5; complement component 5
Experimental: Effect of pH on the rate of dissociation of recombinant human C5 bound to purified anti-C5 monoclonal antibodies was determined using a real-time surface plasmon resonance biosensor using a Biacore T200 instrument. The Biacore sensor surface was first derivatized by amine coupling with a monoclonal mouse anti-human Fc antibody (GE, # BR-1008-39) to capture anti-C5 monoclonal antibodies expressed with human IgG4 Fc. All Biacore binding studies were performed using two running buffers PBS-T, pH7.4 (0.01M Na₂HPO₄/NaH₂PO₄, 0.15M NaCl, 0.05% v/v Tween-20, adjusted to pH7.4) and PBS-T, pH6.0 (0.01M Na₂HPO₄/NaH₂PO₄, 0.15M NaCl, 0.05% v/v Tween-20, adjusted to pH6.0). […] Binding dissociative half-lives (t %) were calculated from kd as: […]

t1/2 Ratio pH7.4/pH6.0 | Binder
2 | B1
9.3 | B2
8.3 | B3
31 | B4
47 | B5
35 | B6
33 | B7
7.8 | B8
7.8 | B9
0.6 | B10

biological target: T3, human C5 R885H-mmh (human, UniProt P01031 19-1676); assay: SPR, mAb captured via anti-hFc, 25C
T3 construct: also called human C5 variant R885H
Experimental: (§1) Equilibrium dissociation constants (KD values) for C5 binding to purified anti-C5 antibodies were determined using a real-time surface plasmon resonance biosensor assay on a Biacore T200 instrument. The Biacore sensor surface was derivatized by amine coupling with a monoclonal mouse anti-human Fc antibody (GE Healthcare, # BR-1008-39) to capture anti-C5 antibodies expressed with human Fc constant regions. Biacore binding studies were conducted in HBST running buffer (0.01M HEPES pH 7.4, 0.15M NaCl, 3 mM EDTA, 0.05% v/v Surfactant P20).
(§2) Human C5 was obtained from a commercial source (EMD). Other C5 reagents were expressed with a C-terminal myc-myc-hexahistidine tag (subsequently referred to as C5-mmh). […] Association of all the C5 reagents to each of the captured monoclonal antibodies was monitored for 3 minutes and their dissociation in HBST running buffer was monitored for 8 minutes. All the binding kinetics experiments were performed at either 25° C. or 37° C. Kinetic association (kₐ) and dissociation (kd) rate constants were determined by fitting the real-time sensorgrams to a 1:1 binding model using Scrubber 2.0c curve fitting software. Binding dissociation equilibrium constants (KD) and dissociative half-lives (t %) were calculated from the kinetic rate constants as: KD (M)=kd/kₐ and t_{1/2} (min)=In2/(60×kd)

100 nM Human C5 R885H-mmh Bound (RU) | Kd | koff | kon | t1/2 | Binder
118 RU | 0.468 nM | 0.000246 s⁻¹ | 526000 M⁻¹ s⁻¹ | 47 min | B1
51 RU | 0.216 nM | 0.000142 s⁻¹ | 659000 M⁻¹ s⁻¹ | 81 min | B10

biological target: T4, human C5 R885C-mmh (human, UniProt P01031 19-1676); assay: SPR, mAb captured via anti-hFc, 25C
T4 construct: also called human C5 variant R885C
Experimental: as §1, §2

100 nM Human C5 R885C-mmh Bound (RU) | Kd | koff | kon | t1/2 | Binder
116 RU | 0.479 nM | 0.000239 s⁻¹ | 499000 M⁻¹ s⁻¹ | 48 min | B1
51 RU | 0.366 nM | 0.000139 s⁻¹ | 379000 M⁻¹ s⁻¹ | 83 min | B10

biological target: T3, human C5 R885H-mmh; assay: SPR, mAb captured via anti-hFc, 37C
Experimental: as §1, §2

100 nM Human C5 R885H-mmh Bound (RU) | Kd | koff | kon | t1/2 | Binder
81 RU | 2.69 nM | 0.00147 s⁻¹ | 548000 M⁻¹ s⁻¹ | 8 min | B1
80 RU | 1.63 nM | 0.000963 s⁻¹ | 592000 M⁻¹ s⁻¹ | 12 min | B10

Biological target: T1, monkey C5-mmh
Assay: SPR, mAb captured via anti-hFc, 37C
Experimental: as §1, §2

100 nM monkey C5-mmh Bound (RU) | Kd | koff | kon | t1/2 | Binder
303 RU | 2.16 nM | 0.00115 s⁻¹ | 535000 M⁻¹ s⁻¹ | 10 min | B1
83 RU | 7.56 nM | 0.00297 s⁻¹ | 393000 M⁻¹ s⁻¹ | 4 min | B2
70 RU | 20.9 nM | 0.00313 s⁻¹ | 150000 M⁻¹ s⁻¹ | 4 min | B3
69 RU | 14.4 nM | 0.00261 s⁻¹ | 181000 M⁻¹ s⁻¹ | 4 min | B4
53 RU | 13.3 nM | 0.00269 s⁻¹ | 203000 M⁻¹ s⁻¹ | 4 min | B5
48 RU | 19.3 nM | 0.00241 s⁻¹ | 125000 M⁻¹ s⁻¹ | 5 min | B6
24 RU | 42.2 nM | 0.00279 s⁻¹ | 66000 M⁻¹ s⁻¹ | 4 min | B7
112 RU | 9.18 nM | 0.00232 s⁻¹ | 253000 M⁻¹ s⁻¹ | 5 min | B8
80 RU | 8.2 nM | 0.00183 s⁻¹ | 223000 M⁻¹ s⁻¹ | 6 min | B9
78 RU | 1.85 nM | 0.00103 s⁻¹ | 556000 M⁻¹ s⁻¹ | 11 min | B10

biological target: T4, human C5 R885C-mmh; assay: SPR, mAb captured via anti-hFc, 37C
Experimental: as §1, §2

100 nM Human C5 R885C-mmh Bound (RU) | Kd | koff | kon | t1/2 | Binder
78 RU | 3.25 nM | 0.00143 s⁻¹ | 438000 M⁻¹ s⁻¹ | 8 min | B1
78 RU | 2.01 nM | 0.000957 s⁻¹ | 477000 M⁻¹ s⁻¹ | 12 min | B10
